Reference: the supplement of paper PMC10724198
± gives the standard deviation of the averaged measurements.

System: Saccharomyces cerevisiae
Assay: protein stability index of tFT-peptide fusion (C-terminal peptide) (PSI (0-1 scale)); higher = more stable (slower turnover)
Conditions: genetic background: wild type; temperature: 30 C
Method: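 Multiplexed protein stability (MPS) profiling in S. cerevisiae. Random 12-aa peptides (tFT-X12 library) are fused to the C-terminus of a sfGFP-mCherry tandem fluorescent timer, after mCherry and a GGGS linker. Cells are FACS-sorted into 8 mCherry/sfGFP bins and deep-sequenced. The protein stability index (PSI) is the read-weighted bin average, scaled from 0 (unstable) to 1 (stable). Only peptides with >10 reads are reported; cells were grown at 30 °C in SC-His with glucose.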
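Note: PSI is a weighted mean of sequencing reads over stability bins, variants kept only with over 10 reads, mCherry proximal and sfGFP distal, peptide attached via GGGS linker.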

| Sequence | protein stability index |
| --- | --- |
| FTPLPHAHPPPP | 0.664 ± 0.0034 |
| FTRFWTKANDPT | 0.6913 ± 0.0014 |
| FTVSPFIFLFSP | 0.653 ± 0.0074 |
| FVCRQSGIWHLR | 0.686 ± 0.029 |
| FVFGSVLPGPTC | 0.692 ± 0.0098 |
| FVGVRTLSRIKI | 0.696 ± 0.053 |
| FVHSTLPPSFSI | 0.735 ± 0.019 |
| FVIAGDLYGLYV | 0.658 ± 0.045 |
| FVKEGRVGTARS | 0.687 ± 0.099 |
| FVPFVLFLLRPL | 0.582 ± 0.022 |
| FVPQPFTPPSSF | 0.685 ± 0.065 |
| FVRFLVGGLGRW | 0.606 ± 0.05 |
| FVRLFSGTLKSV | 0.687 ± 0.033 |
| FVSTSFPPWFSL | 0.684 ± 0.019 |
| FVYHGLVGKRMV | 0.666 ± 0.051 |
| FWECEYVIDDVD | 0.69053 ± 0.00035 |
| FWEHFVLSVRPE | 0.758 ± 0.076 |
| FWFFRGALVHPA | 0.599 ± 0.019 |
| FWSCSTGHERVV | 0.711 ± 0.03 |
| FYFRFPGFLAGF | 0.5687 ± 0.0052 |
| FYGCRLLFLKAR | 0.5273 ± 0.00073 |
| FYYRYDRRTRCV | 0.548 ± 0.012 |
| GAAARSGSRKEL | 0.631 ± 0.029 |
| GAAVSGGRARCP | 0.712 ± 0.064 |
| GACDGEGGSRVR | 0.611 ± 0.0075 |

| Sequence | protein stability index |
| --- | --- |
| GAEPTPYVAEAI | 0.701 ± 0.026 |
| GAFSVPKAKNAL | 0.699 ± 0.1 |
| GAGAHVPCSGRQ | 0.6754 ± 0.0034 |
| GAGEGVGSVVVR | 0.632 ± 0.052 |
| GAGGGGNLGWLR | 0.6788 ± 0.0063 |
| GAGGGSGGGQPG | 0.656 ± 0.032 |
| GAGGSGRRIGCR | 0.762 ± 0.052 |
| GAGGVRCPWVFG | 0.674 ± 0.0075 |
| GAGNVGSGCGGG | 0.631 ± 0.035 |
| GAGRGRLGVGPV | 0.67 ± 0.066 |
| GAGRRRAQEQQT | 0.728 ± 0.015 |
| GAKHDSSRQSLR | 0.746 ± 0.086 |
| GALARFEGAVRV | 0.702 ± 0.012 |
| GAMLAGRHGWGL | 0.715 ± 0.04 |
| GAPRYRLQRPVP | 0.672 ± 0.029 |
| GAPTPPGAPPPA | 0.6642 ± 0.0048 |
| GARGGGQSSFGE | 0.666 ± 0.012 |
| GARGRGLVTESA | 0.703 ± 0.035 |
| GARVGDRALASG | 0.7089 ± 0.0069 |
| GATDMVTSGEWV | 0.757 ± 0.021 |
| GATLETPIGCGR | 0.666 ± 0.0074 |
| GAVHQLGTCLFF | 0.671 ± 0.045 |
| GAYSSFNGNSGD | 0.681 ± 0.064 |
| GCCGGGGVEGLE | 0.695 ± 0.022 |
| GCGFYRTSRVPS | 0.717 ± 0.059 |

| Sequence | protein stability index |
| --- | --- |
| GCGGVWGRSEKY | 0.684 ± 0.019 |
| GCGHVFEVNYEC | 0.6206 ± 0.0053 |
| GCGKRVVVVSEL | 0.6386 ± 0.00072 |
| GCGLGEEGSSGV | 0.647 ± 0.0091 |
| GCGRYWGVVRGC | 0.66 ± 0.037 |
| GCHRRDALRTGD | 0.667 ± 0.053 |
| GCLFLCPLSPLI | 0.685 ± 0.026 |
| GCLIAGGIDCPP | 0.66 ± 0.072 |
| GCPRSCYIPSSV | 0.72 ± 0.011 |
| GCPSGRDIQSSH | 0.643 ± 0.01 |
| GCRELVRCVMLG | 0.669 ± 0.083 |
| GCRRGFRKGQDC | 0.645 ± 0.023 |
| GCSACLVSSLAG | 0.63129 ± 4e-05 |
| GCSGRRGRGGRG | 0.743 ± 0.046 |
| GCTTDQIENEIR | 0.704 ± 0.033 |
| GCYGRVLELAWR | 0.552 ± 0.035 |
| GDDGGSGGCVER | 0.6606 ± 0.0051 |
| GDDVGTEVIVET | 0.684 ± 0.0094 |
| GDGQETEKNNAE | 0.604 ± 0.046 |
| GDGRCAVPFWWG | 0.805 ± 0.074 |
| GDKGLRPNMGLV | 0.645 ± 0.0099 |
| GDRGGLARAGGA | 0.753 ± 0.065 |
| GDSGPDDDLGIS | 0.667 ± 0.065 |
| GDSWVVRSGVWV | 0.734 ± 0.13 |
| GEAASEKKQEAG | 0.644 ± 0.084 |

| Sequence | protein stability index |
| --- | --- |
| GEDGCGGSEAGG | 0.656 ± 0.028 |
| GEGALTGGAGGQ | 0.647 ± 0.0074 |
| GEGCPAGGHGCE | 0.6864 ± 0.0063 |
| GEGGGAGGLEWG | 0.687 ± 0.081 |
| GEGRWWGSFWVG | 0.672 ± 0.019 |
| GEGSQTGSLIPL | 0.71 ± 0.031 |
| GENAIVEVWAGG | 0.686 ± 0.022 |
| GFCCLGGVRPSV | 0.655 ± 0.027 |
| GFCRKESVRCEK | 0.683 ± 0.018 |
| GFDFLHHIVASS | 0.728 ± 0.017 |
| GFEAFGPFIPAF | 0.681 ± 0.019 |
| GFEVAFSCSSWW | 0.716 ± 0.038 |
| GFGKVIMEIESI | 0.715 ± 0.043 |
| GFLGCGSGCGGG | 0.777 ± 0.1 |
| GFLPDSKVKNPF | 0.673 ± 0.029 |
| GFMSFAVTCGLL | 0.688 ± 0.11 |
| GFQIVCSAGERV | 0.611 ± 0.027 |
| GFSLLGPFAFWV | 0.688 ± 0.066 |
| GFSSSFAGGLLF | 0.763 ± 0.036 |
| GFSTCCLFWLTV | 0.529 ± 0.029 |
| GFVLSFADLLGV | 0.653 ± 0.054 |
| GFVQGNNGFLMK | 0.682 ± 0.034 |
| GFWLVSCPWLLF | 0.612 ± 0.14 |
| GFYAMWNSIFWF | 0.743 ± 0.001 |
| GGAAGRRAAEVG | 0.694 ± 0.013 |

| Sequence | protein stability index |
| --- | --- |
| GGAPAPPSRRPW | 0.696 ± 0.032 |
| GGAVSRVGEGGR | 0.785 ± 0.02 |
| GGCCLWVGFPGG | 0.6957 ± 0.0051 |
| GGCSLRWARCRW | 0.686 ± 0.078 |
| GGCVSRPLGRCV | 0.648 ± 0.088 |
| GGDGAVSRRWGR | 0.685 ± 0.015 |
| GGDGGLVMGGGN | 0.684 ± 0.018 |
| GGDVCGWWCWRG | 0.645 ± 0.098 |
| GGDWVVVALLGV | 0.596 ± 0.017 |
| GGEVGRGRLGVV | 0.628 ± 0.018 |
| GGFALIWQRVCP | 0.705 ± 0.011 |
| GGGACRVCGCEV | 0.648 ± 0.0067 |
| GGGECLWNKQAV | 0.687 ± 0.024 |
| GGGGAGGGAGGG | 0.616 ± 0.042 |
| GGGGCVGEWWGR | 0.7423 ± 0.0039 |
| GGGGEGPGKSPR | 0.669 ± 0.14 |
| GGGGFLGVVGVG | 0.58 ± 0.01 |
| GGGGGGGGSLRV | 0.663 ± 0.038 |
| GGGGGGGGVKGV | 0.66 ± 0.02 |
| GGGGGGSTPALG | 0.667 ± 0.028 |
| GGGGGLRGRGVR | 0.682 ± 0.057 |
| GGGGGLVGGCVA | 0.696 ± 0.081 |
| GGGGGWGVAGGV | 0.689 ± 0.013 |
| GGGGLGTAVVGV | 0.6748 ± 0.0024 |
| GGGGSTIGVYVL | 0.686 ± 0.0047 |

| Sequence | protein stability index |
| --- | --- |
| GGGGVVGGLLCS | 0.761 ± 0.027 |
| GGGKINSLHGAG | 0.681 ± 0.041 |
| GGGLGGAGFRGG | 0.661 ± 0.051 |
| GGGRGGARVGQL | 0.661 ± 0.013 |
| GGGRGVVVTCST | 0.713 ± 0.038 |
| GGGRRVRRGGGR | 0.678 ± 0.056 |
| GGGSFVGLDFGG | 0.6567 ± 0.0036 |
| GGGVGGGVGQRG | 0.705 ± 0.086 |
| GGGVLLWEGGGW | 0.711 ± 0.02 |
| GGGVRWRVGRGG | 0.686 ± 0.0082 |
| GGGVSFWLGAVA | 0.647 ± 0.0081 |
| GGGVVRGLEQRA | 0.637 ± 0.074 |
| GGGVYPAGVVSG | 0.658 ± 0.01 |
| GGGWGLRVSCGT | 0.656 ± 0.071 |
| GGGWGRSKTETT | 0.672 ± 0.023 |
| GGGWGWAGENTR | 0.698 ± 0.038 |
| GGILSRVFFLCG | 0.679 ± 0.017 |
| GGIQPEQYLNTL | 0.688 ± 0.019 |
| GGIVVRGVGVRC | 0.661 ± 0.04 |
| GGKGGWHRRWGC | 0.643 ± 0.062 |
| GGLGGVRAGREG | 0.711 ± 0.02 |
| GGLGREKLGGWR | 0.65 ± 0.091 |
| GGLICRQGVGRG | 0.748 ± 0.033 |
| GGLLSTVVVRVL | 0.524 ± 0.022 |
| GGLRGERAGTDG | 0.637 ± 0.02 |

| Sequence | protein stability index |
| --- | --- |
| GGLRGRPPASHR | 0.727 ± 0.074 |
| GGLSGRFRSPSL | 0.754 ± 0.081 |
| GGLWGSGGASGG | 0.742 ± 0.073 |
| GGMDEVFRAHGP | 0.712 ± 0.018 |
| GGMRGGYRGRCV | 0.679 ± 0.039 |
| GGPHYVYPFCSF | 0.699 ± 0.019 |
| GGPPFAPPPPPH | 0.71 ± 0.026 |
| GGPVEQVYSKGR | 0.721 ± 0.042 |
| GGQEEWFGGAWL | 0.727 ± 0.036 |
| GGRARRGLGGPG | 0.6758 ± 0.0034 |
| GGRDVGEMVDLQ | 0.758 ± 0.14 |
| GGRGGCGCGWVV | 0.682 ± 0.11 |
| GGRGGRGQGWYR | 0.661 ± 0.007 |
| GGRGGVWWVGRV | 0.675 ± 0.037 |
| GGRGLGVVGEVL | 0.72 ± 0.046 |
| GGRGVGVVLGVC | 0.5219 ± 0.00031 |
| GGRGWEGRGGSG | 0.684 ± 0.022 |
| GGRLGRGAKGRV | 0.669 ± 0.082 |
| GGRPVTGIAGML | 0.666 ± 0.025 |
| GGRTFHPLWGTT | 0.735 ± 0.029 |
| GGRWNRNSGRGG | 0.693 ± 0.021 |
| GGSARSIPVHVV | 0.584 ± 0.025 |
| GGSDQLGDSVAG | 0.647 ± 0.057 |
| GGSETHLTVTIY | 0.636 ± 0.0077 |
| GGSGAVRSVGEW | 0.668 ± 0.036 |

| Sequence | protein stability index |
| --- | --- |
| GGSSVGALGCLC | 0.687 ± 0.0084 |
| GGTPGSYDIIGV | 0.728 ± 0.016 |
| GGVGGPVLGAGG | 0.638 ± 0.051 |
| GGVGRAALRWYG | 0.68 ± 0.03 |
| GGVGRRVRLGAE | 0.625 ± 0.037 |
| GGVGSCLVLSAR | 0.668 ± 0.036 |
| GGVLGRRLLGGR | 0.64 ± 0.051 |
| GGVPRNRAQIGV | 0.758 ± 0.082 |
| GGVRGWAAFSAE | 0.682 ± 0.028 |
| GGVRRRSAVGVR | 0.65129 ± 0.00017 |
| GGVSKGLGARGR | 0.601 ± 0.042 |
| GGVTEGPGWCVR | 0.735 ± 0.017 |
| GGVVEGVSLAQC | 0.727 ± 0.049 |
| GGVVGASMSGTP | 0.683 ± 0.023 |
| GGVVLTWLGENC | 0.717 ± 0.025 |
| GGVWAGEATGVQ | 0.666 ± 0.052 |
| GGVWWLGVVGGV | 0.657 ± 0.081 |
| GGWCGSGGVVRG | 0.675 ± 0.12 |
| GGWGRGERRSRE | 0.652 ± 0.045 |
| GGWLGGLGCFMV | 0.708 ± 0.046 |
| GHGEGPGRDLGG | 0.648 ± 0.055 |
